Measurements published in patent publication US20120034160A1 (AbbVie / Abbott, published 2012).
Changes are numbered by the printed parent chain.

T1: Recombinant Human IL-17 (human, UniProt Q16552 20-155, limits assumed)
T1 sequence (looked up): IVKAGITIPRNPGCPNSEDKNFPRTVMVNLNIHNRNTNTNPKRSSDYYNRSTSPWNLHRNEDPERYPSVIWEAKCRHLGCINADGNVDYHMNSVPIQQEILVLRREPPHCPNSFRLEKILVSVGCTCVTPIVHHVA

B1: DVD1615 (bispecific antibody, human IgG1, kappa)
heavy: not shown
light: DTVVTQSPAFLSVTPGEKVTITCITSTDIDVDMNWYQQKPDQPPKLLISQGNTLRPGVPSRFSSSGSGTDFTFTISSLEAEDAATYYCLQSDNLPLTFGQGTKLEIKRTVAAPSVFIFPPEIVLTQSPDFQSVTPKEKVTITCRASQNIGSELHWYQQKPDQSPKLLIKYASHSISGVPSRFSGSGSGTDFTLTINGLEAEDAATYYCHQSDTLPHTFGQGTKVDIKRTVAAPSVFIFPPSDEQLKSGTASVVCLLNNFYPREAKVQWKVDNALQSGNSQESVTEQDSKDSTYSLSSTLTLSKADYEKHKVYACEVTHQGLSSPVTKSFNRGEC
B2: DVD1614 (bispecific antibody, human IgG1, kappa)
heavy: not shown
light: EIVLTQSPDFQSVTPKEKVTITCRASQNIGSELHWYQQKPDQSPKLLIKYASHSISGVPSRFSGSGSGTDFTLTINGLEAEDAATYYCHQSDTLPHTFGQGTKVDIKRTVAAPSVFIFPPDTQVTQSPSSLSASVGDRVTITCITSTDIDVDMNWYQQKPGKPPKLLISQGNTLRPGVPSRFSSSGSGTDFTFTISSLQPEDFATYYCLQSDNLPLTFGQGTKLEIKRTVAAPSVFIFPPSDEQLKSGTASVVCLLNNFYPREAKVQWKVDNALQSGNSQESVTEQDSKDSTYSLSSTLTLSKADYEKHKVYACEVTHQGLSSPVTKSFNRGEC
B3: DVD1618 (bispecific antibody, human IgG1, kappa)
heavy: not shown
light: B2 light with D121E, Q123T
B4: DVD1613 (bispecific antibody, human IgG1, kappa)
heavy: not shown
light: DTQVTQSPSSLSASVGDRVTITCITSTDIDVDMNWYQQKPGKPPKLLISQGNTLRPGVPSRFSSSGSGTDFTFTISSLQPEDFATYYCLQSDNLPLTFGQGTKLEIKRTVAAPSVFIFPPEIVLTQSPDFQSVTPKEKVTITCRASQNIGSELHWYQQKPDQSPKLLIKYASHSISGVPSRFSGSGSGTDFTLTINGLEAEDAATYYCHQSDTLPHTFGQGTKVDIKRTVAAPSVFIFPPSDEQLKSGTASVVCLLNNFYPREAKVQWKVDNALQSGNSQESVTEQDSKDSTYSLSSTLTLSKADYEKHKVYACEVTHQGLSSPVTKSFNRGEC
B5: DVD1617 (bispecific antibody, human IgG1, kappa)
heavy: not shown
light: B4 light with D1E, Q3T
B6: DVD1611 (bispecific antibody, human IgG1, kappa)
heavy: not shown
light: DIQMTQSPSSLSASVGDRVTITCRASGNIHNYLTWYQQTPGKAPKLLIYNAKTLADGVPSRFSGSGSGTDYTFTISSLQPEDIATYYCQHFWSIPYTFGQGTKLQITRTVAAPSVFIFPPEIVLTQSPDFQSVTPKEKVTITCRASQNIGSELHWYQQKPDQSPKLLIKYASHSISGVPSRFSGSGSGTDFTLTINGLEAEDAATYYCHQSDTLPHTFGQGTKVDIKRTVAAPSVFIFPPSDEQLKSGTASVVCLLNNFYPREAKVQWKVDNALQSGNSQESVTEQDSKDSTYSLSSTLTLSKADYEKHKVYACEVTHQGLSSPVTKSFNRGEC
B7: DVD1620 (bispecific antibody, human IgG1, kappa)
heavy: not shown
light: DIQMTQSPSSLSASVGDRVTITCRASSGIISYIDWFQQKPGKAPKRLIYATFDLASGVPSRFSGSGSGTDYTLTISSLQPEDFATYYCRQVGSYPETFGQGTKLEIKRTVAAPDIQMTQSPSSLSASVGDRVTITCRASGNIHNYLTWYQQTPGKAPKLLIYNAKTLADGVPSRFSGSGSGTDYTFTISSLQPEDIATYYCQHFWSIPYTFGQGTKLQITRTVAAPSVFIFPPSDEQLKSGTASVVCLLNNFYPREAKVQWKVDNALQSGNSQESVTEQDSKDSTYSLSSTLTLSKADYEKHKVYACEVTHQGLSSPVTKSFNRGEC
B8: DVD1619 (bispecific antibody, human IgG1, kappa)
heavy: not shown
light: DIQMTQSPSSLSASVGDRVTITCRASGNIHNYLTWYQQTPGKAPKLLIYNAKTLADGVPSRFSGSGSGTDYTFTISSLQPEDIATYYCQHFWSIPYTFGQGTKLQITRTVAAPDIQMTQSPSSLSASVGDRVTITCRASSGIISYIDWFQQKPGKAPKRLIYATFDLASGVPSRFSGSGSGTDYTLTISSLQPEDFATYYCRQVGSYPETFGQGTKLEIKRTVAAPSVFIFPPSDEQLKSGTASVVCLLNNFYPREAKVQWKVDNALQSGNSQESVTEQDSKDSTYSLSSTLTLSKADYEKHKVYACEVTHQGLSSPVTKSFNRGEC
B9: DVD1612 (bispecific antibody, human IgG1, kappa)
heavy: not shown
light: EIVLTQSPDFQSVTPKEKVTITCRASQNIGSELHWYQQKPDQSPKLLIKYASHSISGVPSRFSGSGSGTDFTLTINGLEAEDAATYYCHQSDTLPHTFGQGTKVDIKRTVAAPSVFIFPPDIQMTQSPSSLSASVGDRVTITCRASGNIHNYLTWYQQTPGKAPKLLIYNAKTLADGVPSRFSGSGSGTDYTFTISSLQPEDIATYYCQHFWSIPYTFGQGTKLQITRTVAAPSVFIFPPSDEQLKSGTASVVCLLNNFYPREAKVQWKVDNALQSGNSQESVTEQDSKDSTYSLSSTLTLSKADYEKHKVYACEVTHQGLSSPVTKSFNRGEC
B10: DVD1616 (bispecific antibody, human IgG1, kappa)
heavy: not shown
light: EIVLTQSPDFQSVTPKEKVTITCRASQNIGSELHWYQQKPDQSPKLLIKYASHSISGVPSRFSGSGSGTDFTLTINGLEAEDAATYYCHQSDTLPHTFGQGTKVDIKRTVAAPSVFIFPPDTVVTQSPAFLSVTPGEKVTITCITSTDIDVDMNWYQQKPDQPPKLLISQGNTLRPGVPSRFSSSGSGTDFTFTISSLEAEDAATYYCLQSDNLPLTFGQGTKLEIKRTVAAPSVFIFPPSDEQLKSGTASVVCLLNNFYPREAKVQWKVDNALQSGNSQESVTEQDSKDSTYSLSSTLTLSKADYEKHKVYACEVTHQGLSSPVTKSFNRGEC

What follows are binders tested against Recombinant Human IL-1β (human, UniProt P01584 117-269) (assay: cell-based or functional assay).

Binder	N-Terminal VD IL-1β Neutralization Assay EC50 [nM]	C-Terminal VD IL-1β Neutralization Assay EC50 [nM]
B1	0.191	
B2		0.801
B3		2.75
B4	0.246	
B5	0.247	
B6	0.0041	
B7		17.4
B8	0.139	
B9		0.153
B10		1.12

What follows are binders tested against T1, Recombinant Human IL-17 (assay: cell-based or functional assay).

Binder	C-terminal VD IL-17 Neutralization Assay EC50 [nM]	N-terminal VD IL-17 Neutralization Assay EC50 [nM]
B1	0.061	
B2		0.0142
B3		0.0045
B4	0.101	
B5	0.0424	
B6	0.3	
B7		0.0067
B8	0.0345	
B9		0.0238
B10		0.0062
